Test results taken from patent US20160040196A1, “ENZYMATIC CONVERSION OF BOTH ENANTIOMERS OF 1,2-PROPANEDIOL TO PROPIONALDEHYDE” (University of Georgia Research Foundation, Inc., priority 2014, published 2016).

Experiments:
RiDD = assay: Hydrogen-driven conversion in a cell-free reactor (proof of concept, FIG. 2); type: biochemical, Roseburia inulinivorans; settings: 10% (v/v) 1,2-propanediol, 1 atm hydrogen
Method: In the simplest embodiment the “cell free reactor” would include only “catalytic” amounts of the enzymes described herein. Specifically, a catalytic amount is one molecule and anything greater than one enzyme molecule. In the data shown in FIG. 2 of this disclosure the cell free reactor includes the following; 10 μM of RiDD, 100 μM yeast alcohol dehydrogenase (YADH), and 200 μM of the soluble hydrogenase from Ralstonia metallidurans (formally Alcaligenes eutrophus). The reaction was carried out under strictly anaerobic conditions (oxygen-free argon gas) and initiated by the addition of the reduced RiDD-AE (50 μM final) and S-adenosylmethionine (1 μM). 100% hydrogen gas was maintained in the head space of the reactor at 1 atm and the reaction also included 1 mM NADH, 20 mM TRIS pH 7.9, and 1% glycerol.
This experiment was performed in a 50 mL reactor with 20 mL liquid volume and the remaining headspace under 1 atm of oxygen-free hydrogen gas. Experimental conditions were as follows 20 mM Tris pH 7.9, 10% (v/v) 1,2-propanediol, 1% (v/v) glycerol 50 μM purified RiDD, 100 μM purified DhaT, 100 μM NAD+, and 100 μM purified H2ase. After a brief pre-incubation (20 min) period to insure strictly anaerobic conditions were achieved (less than 1 ppm O2), purified RiDD-AE in the reduced (formally [4Fe-4S]′) form was added to a final concentration of 50 μM to initiate the reaction. […]

C[C@H](O)CO = assay: purified protein, by the assay type
OCC(O)CO = assay: purified protein, by the assay type
[1] = substrate: C[C@@H](O)CO; assay: Coupled enzyme assay for the RiDD (NADH-dependent reduction of propionaldehyde by YADH); type: biochemical, Roseburia inulinivorans; settings: other: substrate of RiDD; Michaelis-Menten fit, FIG. 7
Source text: (§1) FIG. 5A depicts a chemical pathway describing how the conversion of glycerol, by an activated glycerol dehydratase can be easily monitored using purified DhaT and following the NADH-dependent reduction of 3-hydroxypropionaldehyde to 1,3-propanediol. Similarly, FIG. 5B depicts a chemical pathway for how the conversion of 1,2-propanediol, by an activated diol-dehydratase can be monitored by following the NADH-dependent reduction of propionaldehyde by YADH.
(§2) A coupled enzyme assay for the CbGD and the RiDD was performed as previously described^5 with minor modifications. Where indicated, varying amounts of the substrate (specifically, glycerol, R-1,2-propanediol, or S-1,2-propanediol) were added from pure stock solutions purchased through Sigma Chemical Company™ in some cases the stocks were diluted with ddH2O in order to allow for accurate measurement of the substrate at the lower concentrations. In addition, when glycerol was used as the substrate for the CbGD, the enzyme YqhD was included in the assay in place of yeast alcohol dehydrogenase (YADH) and […]. YqhD is an aldehyde reductase capable of the NADPH-dependent reduction of several aldehydes, including 3-hydroxypropionaldehyde and was overexpressed and purified from E. coli as previously described^9.

[2] = substrate: C[C@H](O)CO; assay: as above; type: biochemical, Roseburia inulinivorans; settings: other: substrate of RiDD; Michaelis-Menten fit, FIG. 7
Source text: as §1, §2

**Q.** With `OCC(O)CO` [glycerol, propane-1,2,3-triol] as the molecule, how does the “concentration of glycerol over the reaction” value (RiDD; 1% (v/v) glycerol, FIG. 2) read?
**A.** Its value is “remained unchanged”.

**Q.** Which results are given for “C. butyricum glycerol dehydratase (CbGD) (Clostridium butyricum)”?
**A.** Km (C[C@H](O)CO): 800 µM; Km (OCC(O)CO): 200 µM

**Q.** How did the “propanol titer from conversion of 1,2-propanediol” value (RiDD; after 6 hours, 1% glycerol) turn out when `CC(O)CO` (racemic) [1,2-propanediol, propane-1,2-diol] was run?
**A.** Its value is about 14 g/L.

B1: B12-independent diol dehydratase from R. inulinivorans (RiDD) (Roseburia inulinivorans) (protein)
chain: MGNYDSTPIAKSDRIKRLVDHLYAKMPEIEAARAELITESFKATEGQPVVMRKARAFEHILKNLPIIIRPEELIVGSTTIAPRGCQTYPEFSYEWLEAEFETVETRSADPFYISEETKKRLLAADAYWKGKTTSELATSYMAPETLRAMKHNFFTPGNYFYNGVGHVTVQYETVLAIGLNGVKEKVRKEMENCHFGDADYSTKMCFLESILISCDAVITYANRYAKMAEEMAEKETDAARRQELLTIARVCKNVPEFPAESFQEACQSFWFIQQVLQIESSGHSISPGRFDQYMYPYYEKDLKEGSLTREYAQELIDCIWVKLNDLNKCRDAASAEGFAGYSLFQNLIVGGQTVQGRDATNDLSFMCITASEHVFLPMPSLSIRVWHGSSKALLMRAAELTRTGIGLPAYYNDEVIIPALVHRGATMDEARNYNIIGCVEPQVPGKTDGWHDAAFFNMCRPLEMVFSNGYDNGEIASIQTGNVESFQSFDEFMEAYRKQMLYNIELMVNADNAIDYAHAKLAPLPFESCLVDDCIKRGMSAQEGGAIYNFTGPQGFGIANVADSLYTIKKLVFEEKRITMGELKKALEMNYGKGLDATTAGDIAMQVAKGLKDAGQEVGPDVIANTIRQVLEMELPEDVRKRYEEIHEMILELPKYGNDIDEVDELAREAAYFYTRPLETFKNPRGGMYQAGLYPVSANVPLGAQTGATPDGRLAHTPVADGVGPTSGFDISGPTASCNSVAKLDHAIASNGTLFNMKMHPTAMAGEKGLESFISLIRGYFDQQGMHMQFNVVDRATLLDAQAHPEKYSGLIVRVAGYSALFTTLSKSLQDDIIKRTEQADNR
**Q.** What does the source list for B1?
**A.** Km [1]: 800 µM; Km [2]: 500 µM
